Reference: ChEMBL document CHEMBL1123197, “(beta-Chloro-alpha-aminoethyl)phosphonic acids as inhibitors of alanine racemase and D-alanine:D-alanine ligase” (J Med Chem, 1986)

What was measured:
[1] = substrate: C[C@H](N)C(=O)O; experiment: Km value for Alanine racemase from Pseudomonas aeruginosa
[2] = substrate: NC(CCl)P(=O)(O)O; conditions: Pseudomonas aeruginosa
Description: Km for Alanine racemase from Pseudomonas aeruginosa

B1: Alanine racemase, biosynthetic (Escherichia coli K-12), P0A6B4 (protein)
chain: MQAATVVINRRALRHNLQRLRELAPASKMVAVVKANAYGHGLLETARTLPDADAFGVARLEEALRLRAGGITKPVLLLEGFFDARDLPTISAQHFHTAVHNEEQLAALEEASLDEPVTVWMKLDTGMHRLGVRPEQAEAFYHRLTQCKNVRQPVNIVSHFARADEPKCGATEKQLAIFNTFCEGKPGQRSIAASGGILLWPQSHFDWVRPGIILYGVSPLEDRSTGADFGCQPVMSLTSSLIAVREHKAGEPVGYGGTWVSERDTRLGVVAMGYGDGYPRAAPSGTPVLVNGREVPIVGRVAMDMICVDLGPQAQDKAGDPVILWGEGLPVERIAEMTKVSAYELITRLTSRVAMKYVD
- Km [1]: 14.2 mM
- Km [2]: 8 mM
